Measured values: US20150315569A1, “METHOD FOR SCREENING A NUCLEIC ACID-PROGRAMMED SMALL MOLECULE LIBRARY” (The Board of Trustees of the Leland Stanford Junior …, priority 2014, published 2015)

What was measured:
[1] = target: T1, protein kinase A (Mus musculus, UniProt P05132); test: Selection for protein kinase A substrates from the DNA-programmed peptide library; gene/peptide enrichment by Illumina sequencing; format: biochemical, murine; conditions: for LTFE: In (total fold enrichment) after four rounds: after four rounds of PKA substrate selection, kinase-treated vs control population; for Rank: position on list of peptides ranked by fold enrichment: calculated by summing reads over the 1296 genes encoding each peptide, peptide-DNA conjugates
T1 construct: purchased New England Biolabs P6000L
Description: Programmed library synthesis was carried out by a series of DNA-directed library splitting steps followed by chemical coupling steps. For the splitting steps, the ssDNA library was hybridized to an anticodon array overnight at 37° C. using a mesofluidic hybridization pump (see, e.g., Weisinger et al. (2012) PLoS ONE, 7, e28056). The anticodon array with bound DNA was then mounted into a plate adapter device which uses rubber gaskets to form an isolated liquid channel above and below each array feature. The adapter device was placed on top of a 384-well polypropylene filterplate loaded with 5 μl aliquots of DEAE sepharose resin. DNA was eluted from each feature of the anticodon array onto the DEAE resin in the corresponding well of the filterplate by application of a denaturing buffer (10 mM NaOH with 1 mM EDTA and 0.005% Triton X-100) followed by gentle centrifugation of the stack (140×g for 1 minute). The DEAE resin in the filter plate was then washed three times with 85 μl H2O and three times with 85 μl dry methanol. Peptide couplings were performed using EDC and HOAt in methanol and DMF (see, e.g., Halpin et al., (2004) PLoS Biology, 2, E174). Following the synthetic steps, the filterplate was placed on top of a 384-well polypropylene microtiter plate, and DNA was eluted from the DEAE resin by application of a high salt buffer (1.5 M NaCl, 50 mM NaOH, 1 mM EDTA, and 0.005% Triton X-100) followed by gentle centrifugation. The eluted DNA was pooled, concentrated and buffer exchanged into hybridization buffer using a centrifugal filter device with a 10,000 Da molecular weight cut-off (GE Healthcare). BSA and tRNA were added to 0.5 mg/ml each. The sample was diluted to 3 ml with hybridization buffer and applied to another anticodon array. Following the final step of the chemical synthesis, the eluted DNA was split by hybridization for 3 hours at 37° C. to a pair of anticodon columns derivatized with the VE001 and VE002 anticodon sequences. The two halves of the library were concentrated with n-butanol extractions, precipitated with isopropanol, and subjected to kinase-substrate/mock selections respectively.
Translated libraries were incubated in PKA buffer (NEB) overnight at 30° C. with 10,000 units of protein kinase A and 1 mM ATPγS. For the selection between the third and fourth generations, the incubation was shortened to 1 hour at 30° C. Mock selections were performed identically, with the enzyme replaced by a 50% glycerol solution. After incubation, the crude reactions were diluted 1.5-fold and adjusted to 100 mM NaOAc pH 5.2 and 25% dimethyl formamide. EZ-Link iodoacetyl-LC-biotin (Pierce Thermo Fisher Scientific, catalog #21333) was added to 600 μM. After 3 hours in the dark at 25° C., the enzyme-treated library was cleaned up by extraction with phenol: chloroform and n-butanol, and then precipitation with isopropanol. The library was resuspended in 27.5 μl bind buffer (10 mM Tris pH 7.4, 1 mM EDTA, 1 M NaCl), and 1.25 mg/ml tRNA and 0.25 mg/ml BSA were added. The library was then incubated with 15 μl of μMACS streptavidin microbeads (MiltenyiBiotec, 130-074-101) overnight at room temperature. The microbeads were purified and washed over MACS columns according to the manufacturer's instructions, and the purification process was repeated a second time. DNA was amplified directly off of the streptavidin beads by PCR.
25 pmol of amplified DNA was used as a template in a PCR reaction that appended Illumina adaptor sequences. The PCR product was quantified on an Agilent 2100 Bioanalyzer, and a 10 nM solution was submitted to the Stanford Functional Genomics Facility for sequencing using custom primers. Paired-end 150-bp reads were obtained on a MiSeqIllumina Sequencer.
The sequencing data were processed using scripts written in either AWK or MATLAB. […]

[2] = tested on: T2, Kemptide heptapeptide LRRASLG (SEQ ID NO: 10)
T2 sequence: LRRASLG

[3] = tested on: T3, RMSF (SEQ ID NO: 7)
T3 sequence: RMSF

[4] = tested on: T4, RRASL (SEQ ID NO: 3)
T4 sequence: RRASL

[5] = tested on: T5, RRFSV (SEQ ID NO: 4)
T5 sequence: RRFSV

[6] = tested on: T6, RRMS (SEQ ID NO: 9)
T6 sequence: RRMS

[7] = tested on: T7, RRMSV (SEQ ID NO: 5)
T7 sequence: RRMSV

[8] = tested on: T8, RRMTV (SEQ ID NO: 6)
T8 sequence: RRMTV

[9] = tested on: T9, RRSF (SEQ ID NO: 8)
T9 sequence: RRSF

[10] = tested on: T10, RRSFV (SEQ ID NO: 2)
T10 sequence: RRSFV

Substance | LTFE: In (total fold enrichment) after four rounds [1] | Rank: position on list of peptides ranked by fold enrichment ([1]; fourth generation) | other results
RRASL (sythetic peptide) | 10.6 | 20 | 
RMSF | 7.6 | 147 | 
RRSFL |  |  | peptide enrichment in the fourth generation library (result in words) ([1]; reads of the 6^4 (1296) genes per peptide summed): most highly enriched peptide
RRMSV | 9.5 | 51 | 
RRMTV | 8.4 | 95 | 
catalytic subunit of murine cAMP-activated protein kinase A |  |  | Rel. kcat/Km (relative to Kemptide) [2]: 1; Rel. kcat/Km (relative to Kemptide) [3]: 0.0028; Rel. kcat/Km (relative to Kemptide) [4]: 0.27; Rel. kcat/Km (relative to Kemptide) [5]: 4.1; Rel. kcat/Km (relative to Kemptide) [6]: 0.028; Rel. kcat/Km (relative to Kemptide) [7]: 2.2; Rel. kcat/Km (relative to Kemptide) [8]: 0.031; Rel. kcat/Km (relative to Kemptide) [9]: 0.05; Rel. kcat/Km (relative to Kemptide) [10]: 0.16
RRSF | 6.3 | 253 | 
RRFSV | 10.2 | 33 | 
RRMS | 3.0 | 1846 | 
RRSFV | 11.1 | 7 | median enrichment of the genes encoding the peptide ([1]; fourth generation, single genes (one codon per amino acid model)): 175,000 fold
